Measurements from patent publication US20150203577A1 (Chugai, published 2015).
Substitutions are numbered along the chain they refer to.

T1: mouse FcγRII extracellular domain, C-terminally His-tagged (mouse, UniProt P08101 30-210)
T1 construct: the whole entry is named; also called mFcγRII; mFcgRII
T1 sequence: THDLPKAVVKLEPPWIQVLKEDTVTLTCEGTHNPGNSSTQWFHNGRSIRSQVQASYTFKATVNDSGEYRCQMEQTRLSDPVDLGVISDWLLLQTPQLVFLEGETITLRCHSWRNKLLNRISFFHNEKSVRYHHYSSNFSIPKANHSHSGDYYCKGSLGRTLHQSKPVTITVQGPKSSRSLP

T2: mouse FcγRIII extracellular domain, C-terminally His-tagged (mouse, UniProt P08508 31-215)
T2 construct: the whole entry is named; also called mFcγRIII; mFcgRIII
T2 chain: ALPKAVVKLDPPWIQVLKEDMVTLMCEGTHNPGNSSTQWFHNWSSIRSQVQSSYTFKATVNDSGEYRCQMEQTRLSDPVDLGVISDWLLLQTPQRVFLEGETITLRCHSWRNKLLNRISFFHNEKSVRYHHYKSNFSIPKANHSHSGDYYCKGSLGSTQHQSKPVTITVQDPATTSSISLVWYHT

T3: mouse FcγRII (mouse, UniProt P08101 30-210)
T3 construct: also called mFcγRII; mFcgRII
T3 sequence: T1 sequence

T4: mouse FcγRIII (mouse, UniProt P08508 31-215)
T4 construct: also called mFcγRIII; mFcgRIII
T4 chain: T2 chain

B1: H237-MB390/MRAL-k0 (antibody, mouse IgG1, kappa)
heavy: QVQLQESGPGLVKPSETLSLTCAVSGHSISHDHAWSWVRQPPGEGLEWIGFISYSGITNYNPSLQGRVTISRDNSKNTLYLQMNSLRAEDTAVYYCARSLARTTAMDYWGEGTLVTVSSAKTTPPSVYPLAPGSAAQTNSMVTLGCLVKGYFPEPVTVTWNSGSLSSGVHTFPAVLQSDLYTLSSSVTVPSSTWPSETVTCNVAHPASSTKVDKKIVPRDCGCKPCICEPNEVEDVFIFPPKPKDVLTITLTPKVTCVVVDISKDDPEVQFSWFVDDVEVHTAQTQPREEQFNSTFRSVSELPIMHQDWLNGKEFKCRVNSAAFPAPIEKTISKTKGRPKAPQVYTIPPPKEQMAKDKVSLTCMITDFFPEDITVEWQWNGQPAENYKNTQPIMDTDGSYFVYSKLNVQKSNWEAGNTFTCSVLHEGLHNHHTEKSLSHSPGK
light: not shown
notes: Template of the MB390 variants; copies: 2 + 2
B2: H237-MB445/MRAL-k0 (antibody, mouse IgG1, kappa)
heavy: B1 heavy with P230T, N231Y, F292T
light: not shown
notes: copies: 2 + 2
B3: H237-MB452/MRAL-k0 (antibody, mouse IgG1, kappa)
heavy: B1 heavy with P230T, N231Y, A326Q
light: not shown
notes: copies: 2 + 2
B4: H237-MB448/MRAL-k0 (antibody, mouse IgG1, kappa)
heavy: B1 heavy with P230T, N231Y, N320D
light: not shown
notes: copies: 2 + 2
B5: H237-MB442/MRAL-k0 (antibody, mouse IgG1, kappa)
heavy: B1 heavy with P230T, N231Y, K330R
light: not shown
notes: copies: 2 + 2
B6: H237-MB453/MRAL-k0 (antibody, mouse IgG1, kappa)
heavy: B1 heavy with P230T, N231Y, P327D
light: not shown
notes: copies: 2 + 2
B7: H237-MB446/MRAL-k0 (antibody, mouse IgG1, kappa)
heavy: B1 heavy with P230T, N231Y, S294L
light: not shown
notes: copies: 2 + 2
B8: H237-MB443/MRAL-k0 (antibody, mouse IgG1, kappa)
heavy: B1 heavy with P230T, N231Y, F292E
light: not shown
notes: copies: 2 + 2
B9: H237-MB449/MRAL-k0 (antibody, mouse IgG1, kappa)
heavy: B1 heavy with P230T, N231Y, N320L
light: not shown
notes: copies: 2 + 2
B10: H237-MB451/MRAL-k0 (antibody, mouse IgG1, kappa)
heavy: B1 heavy with P230T, N231Y, A326G
light: not shown
notes: copies: 2 + 2
B11: H237-MB447/MRAL-k0 (antibody, mouse IgG1, kappa)
heavy: B1 heavy with P230T, N231Y, S294M
light: not shown
notes: copies: 2 + 2
B12: H237-MB450/MRAL-k0 (antibody, mouse IgG1, kappa)
heavy: B1 heavy with P230T, N231Y, N320M
light: not shown
notes: copies: 2 + 2
B13: H237-MB444/MRAL-k0 (antibody, mouse IgG1, kappa)
heavy: B1 heavy with P230T, N231Y, F292N
light: not shown
notes: copies: 2 + 2
B14: H237-MB441/MRAL-k0 (antibody, mouse IgG1, kappa)
heavy: B1 heavy with P230T, N231Y, A326K
light: not shown
notes: copies: 2 + 2
B15: H237-MB440/MRAL-k0 (antibody, mouse IgG1, kappa)
heavy: B1 heavy with P230T, N231Y, P267L
light: not shown
notes: copies: 2 + 2
B16: H237-MB397/MRAL-k0 (antibody, mouse IgG1, kappa)
heavy: B1 heavy with P230T, N231Y
light: not shown
notes: Template of the MB397 variants; copies: 2 + 2
B17: H237-MB439/MRAL-k0 (antibody, mouse IgG1, kappa)
heavy: B1 heavy with P230T, N231Y, S263E
light: not shown
notes: copies: 2 + 2
B18: H237-MB832/MRAL-k0 (antibody, mouse IgG1, kappa)
heavy: B1 heavy with D235L, P327Y, E329Y
light: not shown
notes: mouse IgG1 CH variant; copies: 2 + 2
B19: H237-MB886/MRAL-k0 (antibody, mouse IgG1, kappa)
heavy: B1 heavy with V233E, D235S
light: not shown
notes: as for B18
B20: H237-MB884/MRAL-k0 (antibody, mouse IgG1, kappa)
heavy: B1 heavy with V233E, E234S, D235L
light: not shown
notes: as for B18
B21: H237-MB885/MRAL-k0 (antibody, mouse IgG1, kappa)
heavy: B1 heavy with N231A, V233E, D235S
light: not shown
notes: as for B18
B22: H237-MB883/MRAL-k0 (antibody, mouse IgG1, kappa)
heavy: B1 heavy with N231A, V233E, E234S, D235L
light: not shown
notes: as for B18
B23: H237-MB830/MRAL-k0 (antibody, mouse IgG1, kappa)
heavy: B1 heavy with D235L, P327F, E329Y
light: not shown
notes: as for B18

target: T1, mouse FcγRII extracellular domain, …; experiment: SPR Biacore T200, KD ratio
Description: (§1) The antibody H chain variable region used was the variable region H237 (SEQ ID NO: 1) of the H chain VH3-IgG1 of the anti-IL-6 receptor antibody Fv4-IgG1 described in WO2009/125825. The antibody L chain commonly used was the L chain MRAL-k0 (SEQ ID NO: 2) of the anti-IL-6 receptor antibody tocilizumab. […] The resulting variant groups were designated as MB397 variants and MB390 variants, respectively. These variants were expressed and purified by the method of Reference Example 1 and evaluated for their binding to mFcγRII and mFcγRIII by the method of Reference Example 2 using Biacore T200.
(§2) Each altered antibody was analyzed for its interaction with each Fcγ receptor prepared above using Biacore T100 (GE Healthcare Japan Corp.), Biacore T200 (GE Healthcare Japan Corp.), Biacore A100, or Biacore 4000. The running buffer used was HBS-EP+ (GE Healthcare Japan Corp.). The assay temperature was set to 25° C. The sensor chips used were chips prepared by immobilizing Protein L (ACTIGEN or BioVision) onto Series S Sensor Chip CM5 (GE Healthcare Japan Corp.) or Series S Sensor Chip CM4 (GE Healthcare Japan Corp.) by the amine coupling method.
(§3) In order to calculate the KD value of each altered antibody for FcγR, kinetic analysis was conducted according to the following method: first, the antibody of interest was captured onto any of these chips and allowed to interact with mFcγR diluted with a running buffer. For the obtained sensorgram, the assay results were globally fit into the 1:1 Langmuir binding model using Biacore Evaluation Software to calculate an association rate constant ka (L/mol/s) and a dissociation rate constant kd (1/s). From these values, the dissociation constant KD (mol/L) was calculated.

Row | relative mFcγRII-binding activity (MB390 = 1) | relative mFcγRII-binding activity (mIgG1 = 1) | relative mFcγRII-binding activity (MB397 = 1) | Binder
1 | 1 fold | 522 fold |  | B1
2 |  | 220 fold | 0.4 fold | B2
3 |  | 46.9 fold | 0.08 fold | B3
4 |  | 525 fold | 0.95 fold | B4
5 |  | 884 fold | 1.6 fold | B5
6 |  | 118 fold | 0.21 fold | B6
7 |  | 1360 fold | 2.45 fold | B7
8 |  | 243 fold | 0.44 fold | B8
9 |  | 154 fold | 0.28 fold | B9
10 |  | 60.1 fold | 0.11 fold | B10
11 |  | 608 fold | 1.1 fold | B11
12 |  | 377 fold | 0.68 fold | B12
13 |  | 231 fold | 0.42 fold | B13
14 |  | 39.7 fold | 0.07 fold | B14
15 |  | 120 fold | 0.22 fold | B15
16 |  | 555 fold | 1 fold | B16
17 |  | 39.5 fold | 0.07 fold | B17

Target: T2, mouse FcγRIII extracellular domain, …
Experiment: SPR Biacore T200, KD ratio
Description: as §1, §2, §3

Row | relative mFcγRIII-binding activity (MB390 = 1) | relative mFcγRIII-binding activity (mIgG1 = 1) | relative mFcγRIII-binding activity (MB397 = 1) | Binder
18 | 1 fold | 11.9 fold |  | B1
19 |  | 13.2 fold | 0.68 fold | B2
20 |  | 4.4 fold | 0.23 fold | B3
21 |  | 25.1 fold | 1.3 fold | B4
22 |  | 26.9 fold | 1.39 fold | B5
23 |  | 9.5 fold | 0.49 fold | B6
24 |  | 63.7 fold | 3.3 fold | B7
25 |  | 15.3 fold | 0.79 fold | B8
26 |  | 10.7 fold | 0.56 fold | B9
27 |  | 9.7 fold | 0.5 fold | B10
28 |  | 31.4 fold | 1.63 fold | B11
29 |  | 22.7 fold | 1.18 fold | B12
30 |  | 12.9 fold | 0.67 fold | B13
31 |  | 4.1 fold | 0.21 fold | B14
32 |  | 6.9 fold | 0.36 fold | B15
33 |  | 19.3 fold | 1 fold | B16
34 |  | 4.5 fold | 0.23 fold | B17

target: T3, mouse FcγRII; experiment: SPR (Biacore), antibody captured on Protein L, mFcγR as analyte

Row | Kd | relative mFcγRII-binding activity (mIgG1 = 1) | Binder
35 | 40.4 nM | 5.16 fold | B18
36 | 246 nM | 1.47 fold | B19
37 | 148 nM | 2.46 fold | B20
38 | 111 nM | 3.29 fold | B21
39 | 164 nM | 2.21 fold | B22
40 | 43.6 nM | 4.78 fold | B23

Target: T4, mouse FcγRIII
Experiment: as above

Row | Kd | relative mFcγRIII-binding activity (mIgG1 = 1) | Binder
41 | 3050 nM | 0.12 fold | B18
42 | 7220 nM | 0.08 fold | B19
43 | 5910 nM | 0.09 fold | B20
44 | 4350 nM | 0.13 fold | B21
45 | 4960 nM | 0.11 fold | B22
46 | 3380 nM | 0.1 fold | B23
